The test system of assay [1] is HIV LTR. In words: HIV LTR transactivation by Tat C-terminal deletion mutants (triple plasmid transfection, Dual-Glo luciferase). The class given is cell-based. The note with it: HEK293 cells, 24 h post transfection, full length Tat72 exon-1 set to 100%, mean (standard deviation). As for the experimental part: Activity is expressed in % with respect to the activity achieved by full length Tat72 exon-1 set to 100%. Shown data are mean values [n 4] with indicated (standard deviation).
Tat-mediated transactivation was determined by triple plasmid transfection of HEK293 cells with pEF-T, a Tat expression plasmid, LTR-FLuc, a HIV LTR-controlled firefly luciferase reporter plasmid and pEF1-RLuc, a EF1α promoter driven Renilla luciferase reporter plasmid. Luciferase reporter activities were assessed 24 h post transfection using the Dual-Glo luciferase assay [Promega]. The measured HIV LTR luciferase data were normalized by Renilla luciferase data retrieved from the pEF1-RLuc plasmid. LTR activity is expressed as percentage of wild type exon-1 Tat72 activity.

Assay [2] deals with latent HIV. In words: Ex vivo activation of latent HIV from primary CD4+ T cells of HIV-infected individuals (gag RNA QPCR). The class given is cell-based, HIV-1. To be noted: for % Activity (PHA): PHA set to 100%; for % Activity (PMA): PMA set to 100%. As for the experimental part:
Activation of latent HIV from primary CD4^+ T cells by overnight incubation with different Tat proteins. Indicated numbers represent HIV activation in percentage to reference compounds PMA and PHA set to 100%. The shown % increase compared to PMA/PHA is statistically significant (p<0.01).
CD4^+ T cells were isolated from 200 ml whole blood using CD4 microbeads (Miltenyi Biotec) according to manufacturer's protocol. Blood originates from HIV-infected individuals under long-term HAART with undetectable plasma virus. Ten to twenty replicates of cell pools plated at 1×10^6 CD4^+ T cells/well were incubated overnight with compounds or mock controls (DMSO/PBS). Total RNA was isolated from each replicate using the Magmax 96 Total RNA isolation kit (Ambion) following the manufacturer's protocol. Duplicate cDNA reactions were performed on each RNA replicate using SuperScript III First-Strand Synthesis kit (Invitrogen) according to the manufacturer's protocol. Quantitative real-time PCR (QPCR) was conducted on each cDNA applying gag-specific primers and the nucleic acid detection dye Sybr Green I [Invitrogen]. Standard curves were generated using cDNA synthesized from in vitro transcribed RNA. The detection limit of the QPCR assay was determined to be within 1-10 copies/reaction. Cycle threshold (ct) values 40 were excluded from the analysis. The Wilcoxon rank sum test was used to calculate the statistical significance of the relative HIV-1 gag RNA copy number between different conditions.

Assay [3] concerns MT4-LTR-GFP cells. In words: Titration of tat protein variants on latent HIV LTR-GFP reporter cell line (flow cytometry). The assay is classed as cell-based. More on the design: unit not given here. To be noted: overnight. As for the experimental part: MT4-LTR-GFP cells were incubated overnight with different Tat variants at the indicated concentration [μg/ml]. LTR activation was determined by flow cytometry.

In assay [4] the test system is HIV LTR. In words: HIV LTR activation by T66 fusion proteins (triple plasmid transfection of HEK293 cells, Dual-Glo luciferase). The class given is cell-based. As for the experimental part:
Triple plasmid transfection of HEK293 cells with pEF-T (Tat expression plasmid), LTR-FLuc (HIV LTR-controlled firefly luciferase reporter plasmid) and pEF1-RLuc (EF1α promoter driven Renilla luciferase reporter plasmid). Luciferase reporter activities were assessed 24 h post transfection using the Dual-Glo luciferase assay [Promega]. The measured HIV LTR luciferase data were normalized by Renilla luciferase data collected from the co-transfected pEF1-RLuc signal. LTR activation is either expressed as fold increase over cell control or as percentage of T66 activity.

In the case of “1-57: first 57 N-terminal amino acids of wild-type tat, SEQ ID No 1; minimal reactivation domain (MEPVDPRLEPWKHPGSQPKTACTNCYCKKCCFHCQVCFMTKALGISYGRKKRRQRRR; Human immunodeficiency virus 1) [Tat 1-57]”, the “% Tat72 activity” value in assay [1] is reported as 40.2 (±2.3) %.
As to “T60: first 60 N-terminal amino acids of wild-type tat, SEQ ID No 2 (MEPVDPRLEPWKHPGSQPKTACTNCYCKKCCFHCQVCFMTKALGISYGRKKRRQRRRAHQ; Human immunodeficiency virus 1) [Tat T60]”, the “% Activity (PHA)” value in assay [2] (Donor 1, overnight incubation) is on record as 328%; in assay [2] (Donor 3, overnight incubation) it was 196%; in assay [2] (Donor 5, overnight incubation) it was “ND/254%”. Besides, the “% Activity (PMA)” value in assay [2] (Donor 1, overnight incubation) came out at 405%; in assay [2] (Donor 3, overnight incubation), 213%. Also, in assay [1], the “% Tat72 activity” value was 77.2 (±10.8) %. The LTR activation came out at 28.5 in assay [3] (Tat 30 μg/ml); 33.4 in assay [3] (Tat 40 μg/ml); 87.0 in assay [3] (Tat 50 μg/ml); 92.1 in assay [3] (Tat 60 μg/ml); 95.2 in assay [3] (Tat 70 μg/ml); 95.8 in assay [3] (Tat 80 μg/ml). Further, the LTR activation in assay [3] (Tat 100 μg/ml) is reported as 93.3.

B1: T72: full length exon 1 Tat [1-72 aa], contains all domains essential for trans-activation (protein, UniProt P04608 1-72, looked up, fragment)
chain: MEPVDPRLEPWKHPGSQPKTACTNCYCKKCCFHCQVCFITKALGISYGRKKRRQRRRAHQNSQTHQASLSKQ
For the molecule B1, the LTR activation was 18.6 in assay [3] (Tat 30 μg/ml); 47.2 in assay [3] (Tat 40 μg/ml); 60.4 in assay [3] (Tat 50 μg/ml); 76.3 in assay [3] (Tat 60 μg/ml); 88.8 in assay [3] (Tat 70 μg/ml); 93.8 in assay [3] (Tat 80 μg/ml). The same molecule came in with an LTR activation in assay [3] (Tat 100 μg/ml) of 93.7.

B2: T86: Tat protein T86; full length tat protein is 86-101 aa (protein, UniProt P04608 1-86, looked up)
Protein Tat: MEPVDPRLEPWKHPGSQPKTACTNCYCKKCCFHCQVCFITKALGISYGRKKRRQRRRAHQNSQTHQASLSKQPTSQPRGDPTGPKE
Consider B2, for which the “% Activity (PHA)” value is reported as “ND/436%” in assay [2] (Donor 4, overnight incubation) and “ND/408%” in assay [2] (Donor 5, overnight incubation).

B3: T66 (protein)
chain: MEPVDPRLEPWKHPGSQPKTACTNCYCKKCCFHCQVCFMTKALGISYGRKKRRQRRRAHQNSQTHQ
modifications: Human immunodeficiency virus 1
Regarding B3, the “% Activity (PHA)” value in assay [2] (Donor 1, overnight incubation) was 680%; in assay [2] (Donor 2, overnight incubation) it was 986%; in assay [2] (Donor 3, overnight incubation) it was 487%; in assay [2] (Donor 4, overnight incubation) it was “ND/479%”; in assay [2] (Donor 5, overnight incubation) it was “ND/636%”. Besides, the “% Activity (PMA)” value in assay [2] (Donor 1, overnight incubation) is given as 838%; in assay [2] (Donor 3, overnight incubation), 530%. In addition, the “HIV activation ex vivo compared with reference compounds” value in assay [2] (patient-derived latently infected CD4 cells, versus PHA, PMA and SAHA) was “exceeded by far the reactivation achieved by reference compounds”. Further, in assay [1], the “% Tat72 activity” value is 92.2 (±12.7) %. The RLUC in assay [4] (EF1α promoter driven Renilla luciferase (normalisation signal), HEK293, 24 h post transfection) is reported as 267. In addition, in assay [4] (HIV LTR-controlled firefly luciferase, HEK293, 24 h post transfection), the FLUC amounted to 15437. Besides, in assay [4] (firefly luciferase normalized by Renilla luciferase), the FLUCnorm came to 37049. This molecule yielded a Fold in assay [4] (fold increase over cell control) of 26. In assay [4] (percentage of T66 activity), the “% T66” value was determined as 100%. The LTR activation in assay [3] (Tat 30 μg/ml) was determined as 45.7; in assay [3] (Tat 40 μg/ml) it was 53.8; in assay [3] (Tat 50 μg/ml) it was 87.0; in assay [3] (Tat 60 μg/ml) it was 88.7; in assay [3] (Tat 70 μg/ml), 87.6; in assay [3] (Tat 80 μg/ml), 93.9. In assay [3] (Tat 100 μg/ml), this molecule showed an LTR activation of 94.5.

(Values after patent US11098085B2, “Use of a HIV derived accessory protein for the reactivation of latent HIV” (Janssen Sciences Ireland Unlimited Company, priority 2014, dated 2021).)
